One test addresses T1, 4H1454-AA.
T1 chain: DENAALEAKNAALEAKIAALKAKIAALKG
Briefly: two-hybrid library CCmax.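 Also: natural log of median RNA to DNA barcode read ratio; higher means stronger binding.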

The next test deals with T2, 4H1558-AA.
T2 chain: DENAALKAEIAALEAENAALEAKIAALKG
Briefly: two-hybrid library CCmax.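 Also: natural log of median RNA to DNA barcode read ratio; higher means stronger binding.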 Conditions: mean of both orientations.

The next test addresses T3, 4H1913-AA.
T3 chain: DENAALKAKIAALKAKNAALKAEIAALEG
Briefly: two-hybrid library CCmax.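 Also: natural log of median RNA to DNA barcode read ratio; higher means stronger binding.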 The conditions noted are these: mean of both orientations.

A further test concerns the target T4, 4H249-AA.
T4 chain: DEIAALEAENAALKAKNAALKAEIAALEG
Briefly: two-hybrid library CCmax.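 Also: natural log of median RNA to DNA barcode read ratio; higher means stronger binding.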 Conditions: mean of both orientations.

The target in a further test is T5, 4H2580-AA.
T5 chain: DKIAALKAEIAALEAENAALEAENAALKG
Put plainly: two-hybrid library CCmax.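 Also: natural log of median RNA to DNA barcode read ratio; higher means stronger binding.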 Conditions: mean of both orientations.

For the next test, the target named is T6, 4H2621-AA.
T6 chain: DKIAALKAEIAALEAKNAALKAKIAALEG
Briefly: two-hybrid library CCmax.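 Also: natural log of median RNA to DNA barcode read ratio; higher means stronger binding.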 Conditions: mean of both orientations.

For the next test, the target named is T7, 4H2699-AA.
T7 chain: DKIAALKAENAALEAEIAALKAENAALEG
Briefly: two-hybrid library CCmax. Conditions: mean of both orientations.

The target of another test is T8, 4H2728-AA.
T8 chain: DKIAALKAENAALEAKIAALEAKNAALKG
Put plainly: two-hybrid library CCmax. The conditions noted are these: mean of both orientations.

The next test addresses T9, 4H2774-AA.
T9 chain: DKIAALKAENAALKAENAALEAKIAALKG
Put plainly: two-hybrid library CCmax. Conditions: mean of both orientations.

A further test concerns the target T10, 4H2903-AA.
T10 chain: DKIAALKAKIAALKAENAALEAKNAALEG
Put plainly: two-hybrid library CCmax. Conditions: mean of both orientations.

A further test deals with T11, 4H2961-AA.
T11 chain: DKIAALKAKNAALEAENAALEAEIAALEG
Put plainly: two-hybrid library CCmax. The conditions noted are these: mean of both orientations.

The next test concerns the target T12, 4H3049-AA.
T12 chain: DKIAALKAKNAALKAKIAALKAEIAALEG
Briefly: two-hybrid library CCmax. Conditions: mean of both orientations.

Another test addresses T13, 4H3129-AA.
T13 chain: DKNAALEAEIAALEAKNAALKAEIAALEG
Briefly: two-hybrid library CCmax. The conditions noted are these: mean of both orientations.

In another test the target is T14, 4H341-AA.
T14 chain: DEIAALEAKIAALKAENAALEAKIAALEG
Briefly: two-hybrid library CCmax. Conditions: mean of both orientations.

A further test has as its target T15, 4H3414-AA.
T15 chain: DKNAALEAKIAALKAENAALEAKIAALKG
Put plainly: two-hybrid library CCmax. Conditions: mean of both orientations.

The target of the next test is T16, 4H3595-AA.
T16 chain: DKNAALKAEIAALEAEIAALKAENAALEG
Briefly: two-hybrid library CCmax. Conditions: mean of both orientations.

A further test deals with T17, 4H3629-AA.
T17 chain: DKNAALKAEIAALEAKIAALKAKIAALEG
Briefly: two-hybrid library CCmax. The conditions noted are these: mean of both orientations.

The target in another test is T18, 4H3782-AA.
T18 chain: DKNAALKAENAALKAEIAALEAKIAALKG
Briefly: two-hybrid library CCmax. The conditions noted are these: mean of both orientations.

In another test the target is T19, 4H380-AA.
T19 chain: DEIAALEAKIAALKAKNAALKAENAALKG
Put plainly: two-hybrid library CCmax. Conditions: mean of both orientations.

Another test has as its target T20, 4H3939-AA.
T20 chain: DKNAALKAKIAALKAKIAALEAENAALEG
Put plainly: two-hybrid library CCmax. The conditions noted are these: mean of both orientations.

A further test has as its target T21, 4H3969-AA.
T21 chain: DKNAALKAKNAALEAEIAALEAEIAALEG
Briefly: two-hybrid library CCmax. Conditions: mean of both orientations.

The next test deals with T22, 4H446-AA.
T22 chain: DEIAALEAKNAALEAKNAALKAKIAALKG
Briefly: two-hybrid library CCmax. Conditions: mean of both orientations.

The next test addresses T23, 4H464-AA.
T23 chain: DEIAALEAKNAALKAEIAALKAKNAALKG
Put plainly: two-hybrid library CCmax. The conditions noted are these: mean of both orientations.

A further test concerns the target T24, 4H483-AA.
T24 chain: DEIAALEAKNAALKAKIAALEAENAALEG
Briefly: two-hybrid library CCmax. Conditions: mean of both orientations.

For the next test, the target named is T25, 4H63-AA.
T25 chain: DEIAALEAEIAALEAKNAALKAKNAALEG
Put plainly: two-hybrid library CCmax. The conditions noted are these: mean of both orientations.

Another test concerns the target T26, P7SH.
T26 chain: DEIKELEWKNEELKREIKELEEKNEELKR
Briefly: two-hybrid library CCNG1.

A further test has as its target T27, P8SH.
T27 chain: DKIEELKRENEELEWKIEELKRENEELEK
Put plainly: two-hybrid library CCNG1.

B1: 4H1454-AA (peptide)
chain: DENAALEAKNAALEAKIAALKAKIAALKG
For the molecule B1, the interaction score was -1.09 in the test with 4H1454-AA; -0.946 with 4H1558-AA; -1.24 with 4H1913-AA; -1.11 with 4H249-AA; -0.961 with 4H2580-AA; -0.876 with 4H2621-AA. Moreover, the interaction score with 4H2699-AA was -0.894; with 4H2728-AA it was -1.37; with 4H2774-AA, -1.09; in the test with 4H2903-AA, -1.74; with 4H2961-AA, 1.04; with 4H3049-AA, 0.754. For the same molecule, the interaction score with 4H3129-AA is -1.84; in the test with 4H341-AA, -1.24; with 4H3414-AA, -1.31; in the test with 4H3595-AA, 0.813; in the test with 4H3629-AA it was -1.38; with 4H3782-AA, 0.615. Besides, the interaction score in the test with 4H380-AA was -1.14; with 4H3939-AA it was -1.25; with 4H3969-AA, 2.05; with 4H446-AA it was -1.96; with 4H464-AA, -1.48; with 4H483-AA it was -0.924. Also, in the test with 4H63-AA, the interaction score is -0.402.

B2: P7SH (peptide)
chain: DEIKELEWKNEELKREIKELEEKNEELKR
In the case of B2, the interaction score was -0.227 in the test with P7SH and 2.08 with P8SH.

(Values after paper PMC10397247.)
